Laboratory results: patent publication US20240287172A1 (SCIRHOM, published 2024)

T1: hiR2-FL-S607R-T7 (human, UniProt Q6PJF5 1-856)
T1 sequence: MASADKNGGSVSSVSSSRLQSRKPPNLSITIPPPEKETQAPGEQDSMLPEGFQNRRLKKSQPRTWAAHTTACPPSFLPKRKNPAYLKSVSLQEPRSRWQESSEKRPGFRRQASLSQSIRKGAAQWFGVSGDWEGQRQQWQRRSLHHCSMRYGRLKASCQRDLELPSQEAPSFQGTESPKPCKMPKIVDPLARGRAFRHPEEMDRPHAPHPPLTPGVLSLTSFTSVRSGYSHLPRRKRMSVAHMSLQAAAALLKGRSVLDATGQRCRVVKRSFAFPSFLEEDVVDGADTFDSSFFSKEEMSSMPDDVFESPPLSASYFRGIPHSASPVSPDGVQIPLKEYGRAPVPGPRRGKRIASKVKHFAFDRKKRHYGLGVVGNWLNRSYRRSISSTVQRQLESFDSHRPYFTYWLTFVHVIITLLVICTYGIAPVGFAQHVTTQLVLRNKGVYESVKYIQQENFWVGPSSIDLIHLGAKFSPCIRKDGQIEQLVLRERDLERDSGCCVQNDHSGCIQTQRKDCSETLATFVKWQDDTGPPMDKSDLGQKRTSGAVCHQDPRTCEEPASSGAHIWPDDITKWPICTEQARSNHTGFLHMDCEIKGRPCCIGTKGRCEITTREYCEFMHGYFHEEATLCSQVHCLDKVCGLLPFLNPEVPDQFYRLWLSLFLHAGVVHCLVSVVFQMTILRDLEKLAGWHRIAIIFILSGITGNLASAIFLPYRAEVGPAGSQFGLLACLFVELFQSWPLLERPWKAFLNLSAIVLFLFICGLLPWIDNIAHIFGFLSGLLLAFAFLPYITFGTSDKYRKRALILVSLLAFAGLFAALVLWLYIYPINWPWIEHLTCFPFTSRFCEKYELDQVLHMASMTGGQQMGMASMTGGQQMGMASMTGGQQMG


Molecular target: T1, hiR2-FL-S607R-T7
Assay: FACS, MEF-DKO cells, 3 µg/ml
Outline: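 Binding read by flow cytometry after a PE goat anti-mouse IgG F(ab′)2 secondary (1:100, on ice, 1 h, dark). Before that, immortalized MEF-DKO lines carrying single-mutant hiR2-FL-T7 constructs were incubated 1 h on ice with 3 μg/ml antibody or FACS buffer alone.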

| Binder | loss of binding vs wild type [%] |
| --- | --- |
| antibody 48 (antibody, V domains shown, mouse IgG, kappa light chain; also called clone #48; purified antibody 48) VH: QVQLQQSGTELVRPGTSVKVSCKASGYAFTNYLIEWVKQRPGQGLEWIGVINPGSGFTKYNEKFKGKATLTADKSSSTVYMHLSSLTSEDSAVYFCARGLYRAMDYWGQGTSVTVSS VL: DIQMTQSPASQSASLGESVTITCLASQTIATWLAWYQQKPGKSPQLLIYGATTLADGVPSRFSGGGSGTKFSFKISSLQAEDFVSYYCQQLYSTPYTFGGGTKLEIK | ≥ 30 |
| antibody 50 (antibody, V domains shown, mouse IgG, kappa light chain; also called clone #50; purified antibody 50) VH: QVQLQQSGAELVRPGASVKVSCKASGYAFSNYLIEWVKQRPGQGLEWIGVINPGSGFTKYNEKFKGKATLTADKSSSTAYMQLSSLTSEDSAVYFCARGLYRAMDYWGQGTSVTVSS VL: DIQMTQSPASQSASLGESVTITCLASQTIGTWLAWYQQKPGKSPQLLIYAAASLADGVPSRFSGGGSGTKFSFKISSLQAEDFVNYYCQQIYSTPYTFGGGTKLEIK | ≥ 30 |
